target: human neonatal Fc-receptor (FcRn) (human) (UniProt P55899); assay: FcRn affinity chromatography of the knobs-into-holes anti-VEGF/ANG2 antibody

| RT [min] (retention time on the FcRn affinity column) | Substance |
| --- | --- |
| 0 | bispecific anti-VEGF/ANG2 antibody (knobs-into-holes), first chain with I253A/H310A/H435A and second chain with H310A (bispecific antibody) |
| 0 | bispecific anti-VEGF/ANG2 antibody (knobs-into-holes), first chain with I253A/H310A/H435A and second chain with H435A (bispecific antibody) |
| 0 | bispecific anti-VEGF/ANG2 antibody (knobs-into-holes), first chain with I253A/H310A/H435A and second chain with I253A/H310A/H435A (bispecific antibody) |
| 52.8 | bispecific anti-VEGF/ANG2 antibody (knobs-into-holes), no FcRn affecting mutation (bispecific antibody) |

target: human neonatal Fc-receptor (FcRn) (human) (UniProt P55899); assay: FcRn affinity column chromatography

| FcRn-affinity column retention time [min] | retention time [min] | Substance |
| --- | --- | --- |
| 41.3 | – | symmetrically engineered IgG1 Fc-region, L234A/L235A/P329G with Y436A (antibody) |
| – | 46.2 | symmetrically modified anti-HER2 antibody, mutation D98E |
| – | 45.6 | symmetrically modified anti-HER2 antibody, mutation E258H |
| – | 46.4 | symmetrically modified anti-HER2 antibody, mutation E430H |
| – | 45.2 | symmetrically modified anti-HER2 antibody, mutation K288E |
| – | 46.2 | symmetrically modified anti-HER2 antibody, mutation K290H |
| – | 46.3 | symmetrically modified anti-HER2 antibody, mutation K317H |
| – | 45.5 | symmetrically modified anti-HER2 antibody, mutation L309H |
| – | 52 | symmetrically modified anti-HER2 antibody, mutation N434H |
| – | 46.3 | symmetrically modified anti-HER2 antibody, mutation Q311H |
| – | 41.4 | symmetrically modified anti-HER2 antibody, mutation R255D |
| – | 46 | symmetrically modified anti-HER2 antibody, mutation T256H |

From patent US20160194389A1
